Key:
[1] = test system: platelets; experiment: in vitro whole blood flow cytometry of platelet receptors and platelet-monocyte aggregates; assay type: cell-based, human; conditions: TNK 12 μg/mL, t-PA 4 μg/mL
Procedure: (§1) Blood samples for the in vitro study were obtained from 9 healthy volunteers. None of the subjects smoked or had hypertension, diabetes, or an abnormal hematocrit. None had received aspirin or any other antiplatelet drugs. All subjects underwent blood sampling after at least 30 minutes of rest and 2 or more hours of fasting. Blood was drawn from an antecubital vein between 8 am and 10 am in order to avoid any diurnal influence. A 21-gauge butterfly needle was used to draw blood into a tube containing 3.8% sodium citrate (1:9 volume); the first 1.5 mL of free running blood was discarded. One tube was kept as an internal control. A second tube was incubated with tenecteplase (TNK) for 30 minutes at room temperature in order to achieve a final concentration of 12 μg/mL. The third tube was similarly incubated with alteplase (t-PA) to achieve a concentration of 4 μg/mL. The concentrations of TNK and t-PA that were chosen approximated conventional plasma levels observed in patients receiving TNK and t-PA bolus (30 mg, and 15 mg, respectively; data on file, Genentech, Inc., South San Francisco, Calif.). Fresh solutions of TNK and t-PA were prepared in Dulbecco's phosphate buffered saline (DPBS) ex tempore on the morning of the platelet studies.
The surface expression of platelet receptors was determined by flow cytometry by using the following monoclonal antibodies: CD 41 (glycoprotein [GP] IIb/IIIa, α IIbβ3) CD 42b (GP Ib), CD 62p (P-selectin), CD 51/CD 61 (αvβ3, or vitronectin receptor), CD 31 (platelet endothelial cell adhesion molecule [PECAM]-1), CD 107a (LAMP-1), CD 107b (LAMP-2), CD 63 (LIMP or LAMP-3), and CD 151 (PETA-3) (PharMingen, San Diego, Calif.). Platelet-leukocyte interactions were assessed by using dual antibodies for a pan-platelet marker (CD 41), together with CD 14, a monocyte/macrophage marker. The blood-citrate mixture (50 μl) was diluted with 450 μl Tris buffered saline (TBS) (10 mmol/L Tris, 0.15 mol/L sodium chloride) and mixed by gently inverting an Eppendorf tube 2 times. The corresponding antibody was then added (5 μl) and incubated at 4° C. for 30 minutes. After incubation, 400 μl of 2% buffered paraformaldehyde was added for fixation. The samples were analyzed on a Becton Dickinson FACScan flow cytometer set up to measure fluorescent light scatter, as previously described. All parameters were collected by using 4-decade logarithmic amplification. The data were collected in list mode files and then analyzed. P-selectin was expressed as percent positive cells. Other antigens were expressed as log mean fluorescence intensity.
(§2) For all comparisons, statistical analyses were done by using repeated measures ANOVA. Post hoc comparison was performed by use of the Bonferroni t-test to identify specific differences in platelet aggregation and receptor expression between patients treated with TNK and t-PA, and controls. The Mann-Whitney U test was used to analyze non-parametric data. Normally distributed data were expressed as mean±SE, and skewed data as median (range). Probability values of P<0.05 were regarded as statistically significant. Linear regression analysis was applied to normally distributed data for all study participants by using the Statview 4.1 program for analysis.

[2] = test system: platelets; experiment: in vitro comparison of TNK versus t-PA on platelet activation and surface receptor expression (15 parameters); assay type: cell-based, human; conditions: TNK 12 μg/mL, t-PA 4 μg/mL, 30 minutes
Procedure: (§3) Blood samples for the in vitro study were obtained from 9 healthy volunteers. None of the subjects smoked or had hypertension, diabetes, or an abnormal hematocrit. None had received aspirin or any other antiplatelet drugs. All subjects underwent blood sampling after at least 30 minutes of rest and 2 or more hours of fasting. Blood was drawn from an antecubital vein between 8 am and 10 am in order to avoid any diurnal influence. A 21-gauge butterfly needle was used to draw blood into a tube containing 3.8% sodium citrate (1:9 volume); the first 1.5 mL of free running blood was discarded. One tube was kept as an internal control. A second tube was incubated with tenecteplase (TNK) for 30 minutes at room temperature in order to achieve a final concentration of 12 μg/mL. […]
For the platelet aggregation (PA) studies, platelet-rich plasma (PRP) was first isolated. […] Platelet counts were determined for each PRP sample with a Coulter Counter ZM (Coulter Co., Hialeah, Fla.). […] Platelet aggregation was determined by using a 4 channel Chrono-log Lumi-Aggregometer (model 560-Ca) and expressed as the maximum percentage of light transmittance change (% max) from the baseline at the end of the recording time. […] Platelet aggregability curves were recorded for 6 minutes and analyzed according to internationally established standards (see, e.g., Ruggeri, Z. M. (1994) Semin. Hemat. 31:229-239). […]

[3] = test system: platelets; experiment: rapid platelet-function assay (Ultegra); assay type: cell-based, human; conditions: TNK 12 μg/mL, t-PA 4 μg/mL
Procedure: as §1
With rapid platelet-function assay (RPFA (Ultegra®); Accumetrics, Inc., San Diego, Calif.), polystyrene beads coated with fibrinogen are placed in a cartridge along with a peptide that activates the thrombin receptor. A whole blood citrate mixture is added to the cartridge, and agglutination between platelets and coated beads is recorded. The data mirror turbidometric platelet aggregation and reflect the degree of platelet glycoprotein IIb/IIIa blockade.
For all comparisons, statistical analyses were done by using repeated measures ANOVA. Post hoc comparison was performed by use of the Bonferroni t-test to identify specific differences in platelet aggregation and receptor expression between patients treated with TNK and t-PA, and controls. […] Normally distributed data were expressed as mean±SE, and skewed data as median (range). […]

[4] = test system: platelets; experiment: in vitro whole blood aggregometry (impedance); assay type: cell-based, human; conditions: 5 μg/mL collagen; TNK 12 μg/mL, t-PA 4 μg/mL
Procedure: as §3
Whole blood samples were prepared as follows: whole blood citrate mixture was diluted 1:1 with 0.5 mL Tyrode's buffer solution, then swirled gently. […] Platelet aggregability was expressed as the change in electrical impedance and is expressed in ohms. Aggregation curves were recorded for 6 minutes and analyzed by use of Aggrolink® software (Chrono-log Corporation).
(§4) For all comparisons, statistical analyses were done by using repeated measures ANOVA. […] Normally distributed data were expressed as mean±SE, and skewed data as median (range). […]

[5] = test system: platelets; experiment: PFA-100 platelet function analyzer, closure time; assay type: cell-based, human; conditions: TNK 12 μg/mL, t-PA 4 μg/mL
Procedure: as §1
The PFA-100™ (Dade Behring, Deerfield, Ill.) is a high shear-inducing platelet function analyzer that simulates primary hemostasis after injury to a small vessel under flow conditions (see, e.g. Kundu, S. K. et al. (1996) Clin. Appl. Thromb. Hemost. 2:241-249). The device provides a constant negative pressure that aspirates a whole blood-citrate mixture, which comes into contact with a collagen-coated membrane and then passes through an aperture. The time required to obtain occlusion of the aperture is digitally recorded and is a measure of shear-induced platelet aggregation.
as §4

[6] = test system: platelet-derived biomarkers; experiment: ASSENT-2 platelet substudy: ELISA of platelet-derived biomarkers in plasma of AMI patients; assay type: in vivo, human
Procedure: Forty-one patients with ST-segment elevation AMI enrolled in a single ASSENT-2 site (Rashid Hospital, Dubai, United Arab Emirates) were studied. The inclusion and exclusion criteria of ASSENT-2 have been previously reported ([no authors listed] (1999) Lancet 354:716-722). Briefly, patients included in the trial were between 18 and 70 years of age and were seen within 6 hours of symptom onset with >30 minutes of continuous symptoms. […] After informed consent was obtained, 7 serum samples were drawn. Samples were collected at baseline and at 30-minute intervals during a 180-minute period. Within 15 minutes of sample acquisition, plasma was separated by centrifugation at 800 g for 10 minutes, aspirated, placed in vials, and snapped frozen at −20° C.
Enzyme-linked immunosorbent assay (ELISA) was used according to standard sandwich techniques for CD 31 (sPECAM-1), sVACAM-1, sP-selectin, (R&D Systems Inc. Minneapolis, Minn.), beta-thromboglobulin, Asserachrom® (Diagnostica Stago Inc., Parsippany, N.J.), platelet factor 4 Asserachrom®, thromboxane, and prostacyclin (Cayman Chemical Co., MI). Each sample was measured in duplicate, and the overall intra-assay coefficient of variation was between 3.1%±0.4% and 7.6%±1.0%, with a plasma recovery rate between 89.7% and 98.7%.
as §2
In the ASSENT-2 Platelet Substudy, 21 of the 41 patients enrolled received TNK (30-50 mg), while the remaining 20 received t-PA (40-85 mg). There were no substantial differences in baseline characteristics for the AMI patients.

B1: TNK: form of tissue plasminogen activator, thrombolytic agent (Genentech) (protein, UniProt P00750 36-562, looked up, variant T103N N117Q K296A H297A R298A R299A)
Tissue-type plasminogen …: SYQVICRDEKTQMIYQQHQSWLRPVLRSNRVEYCWCNSGRAQCHSVPVKSCSEPRCFNGGTCQQALYFSDFVCQCPEGFAGKCCEIDTRATCYEDQGISYRGNWSTAESGAECTNWQSSALAQKPYSGRRPDAIRLGLGNHNYCRNPDRDSKPWCYVFKAGKYSSEFCSTPACSEGNSDCYFGNGSAYRGTHSLTESGASCLPWNSMILIGKVYTAQNPSAQALGLGKHNYCRNPDGDAKPWCHVLKNRRLTWEYCDVPSCSTCGLRQYSQPQFRIKGGLFADIASHPWQAAIFAAAAASPGERFLCGGILISSCWILSAAHCFQERFPPHHLTVILGRTYRVVPGEEEQKFEVEKYIVHKEFDDDTYDNDIALLQLKSDSSRCAQESSVVRTVCLPPADLQLPDWTECELSGYGKHEALSPFYSERLKEAHVRLYPSSRCTSQHLLNRTVTDNMLCAGDTRSGGPQANLHDACQGDSGGPLVCLNDGRMTLVGIISWGLGCGQKDVPGVYTKVTNYLDWIRDNMRP
[1]
  CD 151 expression, TNK versus t-PA samples: Significant reduction
  PECAM-1 expression, TNK versus t-PA samples: Significant reduction
  expression of PECAM-1 compared with saline-treated samples: trend toward diminished expression
  expression of glycoprotein IIb/IIIa compared with saline-treated samples: reduced expression
  formation of platelet-monocyte aggregates compared with saline-treated samples: trend toward diminished
  formation of platelet-monocyte aggregates, TNK versus t-PA: lower
  glycoprotein IIb/IIIa expression, TNK versus t-PA samples: Significant reduction
  vitronectin receptor expression, TNK versus t-PA samples: Significant reduction
[2]
  platelet function, 10 of 15 parameters, compared with baseline DPBS values: diminished platelet function
[3]
  platelet activation units (Ultegra) compared with DPBS: reduction
  platelet activation with the Ultegra analyzer, TNK versus t-PA samples: statistically significant decrease
[4]
  whole blood aggregometry, TNK versus t-PA samples: statistically significant decrease
[5]
  closure time (PFA-100) compared with DPBS: prolongation
  closure time with the ADP/collagen cartridge (PFA-100), TNK versus t-PA samples: extension
[6]; 30-60 minutes
  P-selectin plasma concentrations: immediate increase
[6]; 120-150 minutes
  P-selectin plasma concentrations: significant decrease
[6]; 180 minutes
  P-selectin plasma concentrations: rebound
[6]; AMI patients after thrombolysis
  plasma levels of PECAM-1: significantly inhibited
[6]; TNK 30-50 mg, t-PA 40-85 mg, 180-minute period
  release of substances from platelets (plasma biomarkers): decreased release
[6]; after 90 minutes
  vascular cell adhesion molecule-1 (VCAM-1) release: inhibited significantly
[6]; human, in vivo
  inhibition of thromboxane formation, TNK versus t-PA: significantly stronger
  pattern of prostacyclin release, between the agents: very similar
  plasma concentrations of prostacyclin: significant and early decrease
  plasma concentrations of thromboxane: significant and early decrease
  prevention of platelet activation, TNK versus t-PA group: stronger prevention of platelet activation
